Tests used:
[1] = target: T1, FtsZ-K190V (E. coli, UniProt P0A9A6 1-383, K190V); assay: co-sedimentation; stable FtsZ polymers formed with GMPCPP (1 mM); proteins 5 µM, SBS17-30mer DNA 2 µM; Pol buffer (50 mM HEPES-NaOH pH 8.0, 200 mM KCl, 10 mM MgCl2); 80,000 rpm 15 min 25°C; supernatant and pellet by SDS-PAGE; settings: both partners purified
T1 construct: FtsZ, E. coli, untagged, with K190V; pSEB160 derivative
T1 sequence (looked up): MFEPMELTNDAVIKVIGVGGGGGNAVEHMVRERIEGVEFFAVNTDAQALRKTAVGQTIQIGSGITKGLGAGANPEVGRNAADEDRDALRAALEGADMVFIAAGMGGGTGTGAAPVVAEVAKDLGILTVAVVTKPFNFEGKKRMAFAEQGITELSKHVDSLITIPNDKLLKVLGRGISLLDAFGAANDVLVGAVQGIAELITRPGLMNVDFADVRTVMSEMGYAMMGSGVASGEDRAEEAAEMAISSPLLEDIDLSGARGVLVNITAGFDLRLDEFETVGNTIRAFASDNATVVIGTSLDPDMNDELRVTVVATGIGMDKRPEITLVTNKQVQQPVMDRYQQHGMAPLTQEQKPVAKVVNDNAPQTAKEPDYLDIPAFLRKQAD

[2] = target: T2, FtsZ-D86N (E. coli, UniProt P0A9A6 1-383, D86N); assay: BLI; biotinylated SBS17-30mer (50 nM) on streptavidin tips, loaded with 4 µM SlmA or SlmA mutant; FtsZ or variants (4 µM, preincubated with 1 mM GDP) or peptides (up to 320 µM) in solution; 1× Pol buffer, room temperature; settings: both partners purified
T2 construct: FtsZ, E. coli, untagged, with D86N; pSEB160 derivative
T2 sequence (looked up): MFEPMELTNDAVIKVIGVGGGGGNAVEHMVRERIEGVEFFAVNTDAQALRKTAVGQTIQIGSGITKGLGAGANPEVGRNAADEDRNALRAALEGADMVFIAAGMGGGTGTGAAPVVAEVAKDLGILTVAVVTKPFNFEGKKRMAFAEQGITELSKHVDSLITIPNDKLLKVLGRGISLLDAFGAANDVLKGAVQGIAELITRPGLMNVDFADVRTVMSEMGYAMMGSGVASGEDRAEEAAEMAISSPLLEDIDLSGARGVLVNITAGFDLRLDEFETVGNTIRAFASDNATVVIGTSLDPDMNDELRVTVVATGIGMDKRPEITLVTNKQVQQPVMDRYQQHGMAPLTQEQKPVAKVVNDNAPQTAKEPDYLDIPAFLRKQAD

B1: 6×His-SlmA (natural protein, E. coli, UniProt P0C093 1-198, looked up)
chain: MAEKQTAKRNRREEILQSLALMLESSDGSQRITTAKLAASVGVSEAALYRHFPSKTRMFDSLIEFIEDSLITRINLILKDEKDTTARLRLIVLLLLGFGERNPGLTRILTGHALMFEQDRLQGRINQLFERIEAQLRQVLREKRMREGEGYTTDETLLASQILAFCEGMLSRFVRSEFKYRPTDDFDARWPLIAAQLQ
notes: SlmA, E. coli; also called SlmA-WT; His tagged SlmA; source: E. coli JS238/pQE80-slmA, purified (Ni-NTA)
Question: Does B1 bind [1]?
Answer: binds

Question: Does B1 bind [2]?
Answer: binds

Reference: publication PMC4117426, “SlmA Antagonism of FtsZ Assembly Employs a Two-pronged Mechanism like MinCD” (PLoS Genetics, 2014)
